The data set can be described thus: yeast display, Sf9 membrane polyspecificity reagent, FACS + sequencing; frameworks hold sequencing errors. In outline:
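In a synthetic yeast display library (Saccharomyces cerevisiae BJ5465), nanobody expression was induced with galactose for 36–48 hours. FACS gates were set low and high (top ~1%) using anti-HA fluorescence for expression and streptavidin fluorescence for binding of the Sf9 membrane reagent. Each polyreactivity label is drawn from the gate of origin.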
For “QVQLVESGGGLVQAGGSLRLSCAASGSIFAYNAMGWYRQAPGKEREFVAAISQSGGRTYYADSVKGRFTISRDNAKNTVYLQMNSLKPEDTAVYYCATDGIRLTRHRDYDYWGQGTQVTVSS”, the “polyreactivity (PSR sort gate)” value is reported as “low polyreactivity”.

Regarding “QVQLVESGGGLVQAGGILRLSCAASGSIFYRYAMGWYRPAPGKERELVAAINWSGGITYYADSEKGRFTISRDNAKITFYLQMISLKPEDTAVYYCAARTHVYNWGYYYWGQGTQVTVSS”, the “polyreactivity (PSR sort gate)” value is listed as “high polyreactivity”.

For “QVQLVESGGGLVQAGGSLRLSCAASGRIFRGNAMGWYRQARGKERELVAGISVRGGRTYYADSVKGRFTISRDNAKNTVYLQMNSLKPEDTAVYYCAAVFWDDYGKYYYWGQGTQVTVSS”, the “polyreactivity (PSR sort gate)” value is recorded as “high polyreactivity”. In the case of “QVQLVESGGGLVQAGGSLRLSCAASGFIFGVNTMGWYRQAPGKERELVAAINSGGSTNYADSVKGRFTISRDNAKNTVYLLMNSLKPEDTAVYYCAVRHFWYRWGWYNYWGQGTEVTVSS”, the “polyreactivity (PSR sort gate)” value was “high polyreactivity”. In the case of “QVHLVESGGGLVQAGGSLRLSCAASGRIRYYAMGWYRQAPGKERELVAAITSSGGSTYYADSVKGRFTISRDNAKNTVYLQMNSLKPEVTAVYYCIAVASLSGDYWGQGTQVTVSS” it was “high polyreactivity”; in that of “QVQLVESGVCLVQAGRSLRLSCAASGRTFGYYAMGWYRQAPGKERELVAGITLSGGSTYYADSVKGRFTISRDNAKNTVYLQMNSLKPDDTAVYYCAARRRGRAGRDDYWGQGTQVTVSS”, “high polyreactivity”.

As to “QVQLVESGGGLVQAGGSLRLSCAASGFIFRYYAMGWYRPAPGKERELVAAISGSGGSTYYADSVKGRFTISRDNAKNTVYLQMNSLKPEDTAVYYCNKVVLYGAHYYYWGQGTQVTVSS”, the “polyreactivity (PSR sort gate)” value was “high polyreactivity”. With “QVQLVESGGGLVQAGGSLSLSCAASGSIVAYNAMGWYRQAPGKERELVAAITDSGGSTFYADSVKGRFTISRDNAKNTVYLQMNSLKPEDTAVYYCATSGDRLVWGQGTQVTVSS”, the “polyreactivity (PSR sort gate)” value is given as “low polyreactivity”. In the case of “QFQLVESGGGLVQAGGSLRLSCAASGIIFGRYTMGWYRDAPGKERELVAAITSSGITYYADSVKGRFTISRDNAKNTVYLQMNSLKPEDTAVYYCAADVGYWGRSRGYPSDDYDYWGQGTQVTVSS” it was “low polyreactivity”.

For “QVQLVESGGGLVQAGGSLRLSCAASGRIFGYNAMGWYRQAPGKERELVASITRGGSTNYADSVKGRFTISRDNAKNTVYLQMNSLKPEDTAVYYCATRWPHYGGYYYWGQGTQVTVSS”, the “polyreactivity (PSR sort gate)” value is recorded as “high polyreactivity”. In the case of “QVQLVESGGGLVQAGGSLRLICAASGSTFNSYTMGWYRQAPGKERELVAAISSGGITYYADSEKGRFTISRDNAKNTVYLLMNSLKPEDTAVYYCADRRYRYGYNYWGQGTQVTVSS” it was “high polyreactivity”; in that of “QVQLVESGGALVQAGGSLRLSCAASGRTFNRYGMGRYRQAPGEERELVASITSGGSTNYADSVKGRFTISRDNAKNTVFLQMNSLKPEDTAVYYCAKRSIGRYPRTYDYWGQGTKVTVSS”, “low polyreactivity”; in that of “QDQIVESGGGLVQAGGSLRLIFAASGLTIARNAMGWYRQAPGKERELVAAISFSGGSTYYADSVKGRFTISRDNAKNTVYLLMNSLKPEDTAVYYCNTLLRRDFNYWGQGTQVTVSS”, “high polyreactivity”. In the case of “QVQLVESGGGLVQAGGSLRLSCAASGFTFVINYMGWYRQAPGKERELVADITSGGDTYYADSVKGRFTISRDNAKNTVYLQMNSLNPEDTAVYYCAADIYPDWIYLLYGYWGQVTQVTVSS” it was “low polyreactivity”; in that of “QVQLVESGGGLVQAGGSLRLSCAASGYIFKYNAMGWYRQAPGKERELVAAISGRGGSTYYADSVKGRFTISRDNAKNTVYLQMNSLKPEDTAVYYCNADYQARRYNYWGQGTQVTVSS”, “high polyreactivity”; in that of “QVQLVESGGGLVQAGGSLRLSCAASGFIFTGNVMGWYRQAPGKEREFVAAISRSGGNTYYADSVKGRFTISRDKAKNTVYLQMNSLKPEDTAVYYCAVPKHFVVSYDYWGQGTQVTVSS”, “high polyreactivity”. Take “QVQLVESGGGLVQAGGSLRLSCAASGSTFPQYVMGWYRQEPGKERELVAAITKSGGRTYYADSVKGRFTISRDNAKNTVYLQMNSLKPEDTAVYYCAAVRWDISRFRYYSWGHGTQVTVSS”: the “polyreactivity (PSR sort gate)” value was “high polyreactivity”. In the case of “QVQLVESGGGLVQAGGSLRLSCAASGRTLYGYAMGWYRQAPGKERELVASIRSGGSTNYADSVKGSFTISRDNAKNTVYFQMNSLKQEYTAVYYCAAEPYYSYGYYHAHGRDVGYWGQGTQVTVSS” it was “low polyreactivity”; in that of “QVQLVESGGGLVQAGGSLRLSCAASGIIFKNYAMGWYRQAPGKERELVAAISKRGASTYYADSVKGRFTISRDNAKNTVYLQMNSLKPEDTAVYYCAAYRQGSAYDYWGQGTQVTVSS”, “high polyreactivity”.

As to “QVQLVESGGGLVQAGGSLLLSCAASGFSFEKNAMGWYIQEPGKERELVAAISRGGSTYADSVKGRFTISRDNAKNTVYLQMYSRKPVDTAVYYCAADTVYIFSSAINGEFGYWGQGTQVTVSS”, the “polyreactivity (PSR sort gate)” value is on record as “low polyreactivity”.

With “QVQLVESGGGLVQAGGSLRLSCAASGFTFPVYVLGWYRQAPGKERELVAAISGGGGTSYADSVKGRFTISRDNAKNTVYLQMNSLKPEDTAVYYCAADYRTYVYVYGFRHFDYWGQGTQVTVSS”, the “polyreactivity (PSR sort gate)” value is reported as “low polyreactivity”. On to “QVQLVESGGGLVQAGGSLRLSCAASGSNFSHYAMGWYRQAPGKESELVAAISSGDSTNYADSVKGRFTISRDNAKNTVYLQMSSVKPEDTAVYYCAKTRRRLLTRYDYWGQGTQVSVSS”, for which the “polyreactivity (PSR sort gate)” value is reported as “low polyreactivity”. Consider “QVQLVESGGGLVQAGGSLRLSCAASGRIFPLYAMGWYRQAPGKERELVAAITSSGGSTYYADSVKGRFTISRDNAKNTVYLQMNSLKPEDTAVYYCAADYSVYWLDYGYWGQGTQVTVSS”, for which the “polyreactivity (PSR sort gate)” value is reported as “low polyreactivity”.

Take “QVQLVESGGGLVQAGGSLRLSCAASGLTFSAYAMGWYRQAPGKERELVAAITSSGGSTYADSVKGRFTLSRDNAKNTVYLQMNSRKPEDTAVYYCNADLGDYGWYSSYDYWGQGNQVTVSS”: the “polyreactivity (PSR sort gate)” value is “low polyreactivity”. In the case of “QVQLVESGGGLVQAGGSLRLSCAASGSIFAVNTMGWYRQAPGKERELVAAISQRGSSTYYADSVKGRFTISRDNAKNTVYLKMNSMKPEDTAVFFCAKRFIYGLYNYWGQGTQVTVSS” it was “high polyreactivity”; in that of “QVQLVESGGGLDQAGGSLRLSCAASGSIFFGNAMGWSRQPPGKERELVAAITTSGGSTYYADSVKGRFTISRDNAKNTLYLQMNSLKPEDTAVYYCYARIASWLGSRYEYWGQGTQVTVSS”, “low polyreactivity”. In the case of “QVQLVESGGGLVQAGGSLRLSCAASGSTFVRNAMGWYRQAPGKERELVAAITRGGRTYYADSVKGRFTISRDNAKNTVYLQLNSLKPEVTAVYYCAKPSSPSLGGVSDRNYWGQGTQVTVSS” it was “low polyreactivity”; in that of “QVQLVESGGRLVQAGGSLRLTCAASGSTFIIYAIGWSRQAPGQERELVAASTSGGSTYYADSVKGRFRISRDNAKNSVYLQMNSLKQEDTAVYYCAARAWRGSFRDGYWGQGTQVTVSS”, “high polyreactivity”. Regarding “QVQLVESGGGLVQAGGSLRLSCAASGYIFVHYAMGWYRQAPGKERDLVAAITRGGNTYYADSVKGRFTISRDNANNTVNLQMNSLKPEDTAVHYCAADNYGRGAGYDYWGQGSQVTVSS”, the “polyreactivity (PSR sort gate)” value is on record as “high polyreactivity”. For “QVQLVESGGGLVQAGGSLRLSCAASGSIFRYYVMGWYRQAPGKERELVAAINGGGGSTYYADSVKGRFTISRDNAKNTVYLQMNSLKPEDTAVYYCNAVGGTRGKYPYFKYGYWGQGTQVTVSS” the value was “high polyreactivity”.

Source of the values: the nanobody polyreactivity screen of Harvey et al. (2022).
